The chains are these.
B1: SKAGRPISPDrRAAGKLTCLASYCWLFWTGIA (peptide)
peptide: SKAGRPISPD[dR]RAAGKLTCLASYCWLFWTGIA
modifications: not fully specified; printed as SKAGRPISPDrRAAGKLTCLASYCWLFWTGIA; cysteine pairing not given here
B2: SKQGRPISPDrRAAGKLTCLASYCWLFWT (peptide)
peptide: SKQGRPISPD[dR]RAAGKLTCLASYCWLFWT
modifications: not fully specified; printed as SKQGRPISPDrRAAGKLTCLASYCWLFWT; cysteine pairing not given here
B3: SKQGRPISPDrRAAGKLTCLASYCWLFWTGI (peptide)
peptide: SKQGRPISPD[dR]RAAGKLTCLASYCWLFWTGI
modifications: not fully specified; printed as SKQGRPISPDrRAAGKLTCLASYCWLFWTGI; cysteine pairing not given here
B4: SKQGRPISADrRAAGKLTCLASYCWLFWTGIA (peptide)
peptide: SKQGRPISAD[dR]RAAGKLTCLASYCWLFWTGIA
modifications: not fully specified; printed as SKQGRPISADrRAAGKLTCLASYCWLFWTGIA; cysteine pairing not given here
B5: SKQGRPIAPDrRAAGKLTCLASYCWLFWTGIA (peptide)
peptide: SKQGRPIAPD[dR]RAAGKLTCLASYCWLFWTGIA
modifications: not fully specified; printed as SKQGRPIAPDrRAAGKLTCLASYCWLFWTGIA; cysteine pairing not given here
B6: SKQGRAISPDrRAAGKLTCLASYCWLFWTGIA (peptide)
peptide: SKQGRAISPD[dR]RAAGKLTCLASYCWLFWTGIA
modifications: not fully specified; printed as SKQGRAISPDrRAAGKLTCLASYCWLFWTGIA; cysteine pairing not given here
B7: SKQGAPISPDrRAAGKLTCLASYCWLFWTGIA (peptide)
peptide: SKQGAPISPD[dR]RAAGKLTCLASYCWLFWTGIA
modifications: not fully specified; printed as SKQGAPISPDrRAAGKLTCLASYCWLFWTGIA; cysteine pairing not given here
B8: SRIrTVSPGSrSASGKSTCLASYCWLFWTGIA (peptide)
peptide: SRI[dR]TVSPGS[dR]SASGKSTCLASYCWLFWTGIA
modifications: not fully specified; printed as SRIrTVSPGSrSASGKSTCLASYCWLFWTGIA; cysteine pairing not given here
B9: SKQGRPISPDrRAAGKLTCLaSYCWLFWTGIA (peptide)
peptide: SKQGRPISPD[dR]RAAGKLTCL[dA]SYCWLFWTGIA
modifications: not fully specified; printed as SKQGRPISPDrRAAGKLTCLaSYCWLFWTGIA; cysteine pairing not given here
B10: SKQGRPISPArRAAGKLTCLASYCWLFWTGIA (peptide)
peptide: SKQGRPISPA[dR]RAAGKLTCLASYCWLFWTGIA
modifications: not fully specified; printed as SKQGRPISPArRAAGKLTCLASYCWLFWTGIA; cysteine pairing not given here
B11: SKQGRPISPDrRAAGKLTCLASYCWLFWTG (peptide)
peptide: SKQGRPISPD[dR]RAAGKLTCLASYCWLFWTG
modifications: not fully specified; printed as SKQGRPISPDrRAAGKLTCLASYCWLFWTG; cysteine pairing not given here
B12: AKQGRPISPDrRAAGKLTCLASYCWLFWTGIA (peptide)
peptide: AKQGRPISPD[dR]RAAGKLTCLASYCWLFWTGIA
modifications: not fully specified; printed as AKQGRPISPDrRAAGKLTCLASYCWLFWTGIA; cysteine pairing not given here
B13: SAQGRPISPDrRAAGKLTCLASYCWLFWTGIA (peptide)
peptide: SAQGRPISPD[dR]RAAGKLTCLASYCWLFWTGIA
modifications: not fully specified; printed as SAQGRPISPDrRAAGKLTCLASYCWLFWTGIA; cysteine pairing not given here
B14: SKQARPISPDrRAAGKLTCLASYCWLFWTGIA (peptide)
peptide: SKQARPISPD[dR]RAAGKLTCLASYCWLFWTGIA
modifications: not fully specified; printed as SKQARPISPDrRAAGKLTCLASYCWLFWTGIA; cysteine pairing not given here
B15: SKQGRPISPDrRAAGKLTCLASYCWLFW (peptide)
peptide: SKQGRPISPD[dR]RAAGKLTCLASYCWLFW
modifications: not fully specified; printed as SKQGRPISPDrRAAGKLTCLASYCWLFW; cysteine pairing not given here

Square brackets hold non-standard residues; d marks the D form. Primed or numbered codes have the meaning given here. Side chains are listed from the residue outwards. Ends that are not written are not given here. * marks the point of attachment. Biotin = O=C1N[C@H]2[C@H](CS[C@H]2CCCCC(=O)*)N1; PEG2(3) = PEG2 spacer carrying biotin on Lys Bounds are passed on as bounds.

The experiment addresses human Factor IXa (human, UniProt P00740 47-191; P00740 227-461). In words: cell-based or functional assay.
On to B1, for which the “EC50 [µM], FXa generation assay” value was below 0.5 µM.

Consider B2, for which the “EC50 [µM], FXa generation assay” value was below 0.5 µM.

As for B3, the “EC50 [µM], FXa generation assay” value was below 0.5 µM.

With B4, the “EC50 [µM], FXa generation assay” value was below 0.5 µM.

For the molecule PRIRTVGPGSRRASGKLTCLASYCWLFWTGIA, the “EC50 [µM], FXa generation assay” value is below 0.5 µM.

Regarding PRIRTVGPGSRSASGKLTCAASYCWLFWTGIA, the “EC50 [µM], FXa generation assay” value is above 1 µM.

As for PRIRTVGPGSRSASGKLSCLASYCWLFWTGIA, the “EC50 [µM], FXa generation assay” value is below 0.5 µM.

Take PRIRTVGPGSRSASGKLTCSASYCWLFWTGIA: the “EC50 [µM], FXa generation assay” value is above 1 µM.

With PRIRTVGPGSRSASGKLTCLASACWLFWTGIA, the “EC50 [µM], FXa generation assay” value is above 1 µM.

As to PRIRTVGPGSRSASGKLTCVASYCWLFWTGIA, the “EC50 [µM], FXa generation assay” value is above 1 µM.

As to PRIRTVGPGSRSASGKLTCFASYCWLFWTGIA, the “EC50 [µM], FXa generation assay” value is above 1 µM.

Turning to B5, the “EC50 [µM], FXa generation assay” value is below 0.5 µM.

In the case of B6, the “EC50 [µM], FXa generation assay” value is above 1 µM.

For B7, the “EC50 [µM], FXa generation assay” value was below 0.5 µM.

Consider B8, for which the “EC50 [µM], FXa generation assay” value was above 1 µM.

Consider B9, for which the “EC50 [µM], FXa generation assay” value is above 10 µM.

B10: the “EC50 [µM], FXa generation assay” value is below 0.5 µM.

In the case of B11, the “EC50 [µM], FXa generation assay” value is below 0.5 µM.

Regarding RRFVGGSLSQRRAPGKLTCLASYCWLFWTGIA [RRFVGGSLSQ RRAPG KLTCLASYCWLFWTGIA], the “EC50 [µM], FXa generation assay” value is below 0.5 µM.

With B12, the “EC50 [µM], FXa generation assay” value is below 0.5 µM.

With B13, the “EC50 [µM], FXa generation assay” value is below 0.5 µM.

On to B14, for which the “EC50 [µM], FXa generation assay” value is above 1 µM.

As for PTDTGPVISGLRAPGKLTCLASYCWLFWTGIA [PTDTGPVISG LRAPG KLTCLASYCWLFWTGIA], the “EC50 [µM], FXa generation assay” value is below 0.5 µM.

As for GSVRRALFVAARAPAKLTCLASYCWLFWTGIA [GSVRRALFVA ARAPA KLTCLASYCWLFWTGIA], the “EC50 [µM], FXa generation assay” value was below 0.5 µM.

On to SKQGRPISPDRRAAGKLTCLASYCWLFWTGIA[PEG2(3)]K([PEG2(3)-Biotin]) (cysteine pairing not given here) [SKQGRPISPDRRAAGKLTCLASYCWLFWTGIA-PEG2-K(PEG2-Biotin)], for which the “EC50 [µM], FXa generation assay” value was above 1 µM.

With B15, the “EC50 [µM], FXa generation assay” value is below 0.5 µM.

Source of the values: patent US20140303084A1 (Biogen, published 2014).
